Patent US20100190693

Columns and labels:
[1] = biological target: GST-TORC2 (aa 161-181) Ser171Ala, Q53ET0
[2] = biological target: T1, GST-TORC2 (aa 161-181), wild-type, Q53ET0 (not fully specified)
T1 chain: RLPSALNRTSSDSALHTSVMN

Chain of GST-TORC2 (aa 161-181) Ser171Ala, Q53ET0 (Q53ET0 whole entry S171A, looked up, the tested form may be a part): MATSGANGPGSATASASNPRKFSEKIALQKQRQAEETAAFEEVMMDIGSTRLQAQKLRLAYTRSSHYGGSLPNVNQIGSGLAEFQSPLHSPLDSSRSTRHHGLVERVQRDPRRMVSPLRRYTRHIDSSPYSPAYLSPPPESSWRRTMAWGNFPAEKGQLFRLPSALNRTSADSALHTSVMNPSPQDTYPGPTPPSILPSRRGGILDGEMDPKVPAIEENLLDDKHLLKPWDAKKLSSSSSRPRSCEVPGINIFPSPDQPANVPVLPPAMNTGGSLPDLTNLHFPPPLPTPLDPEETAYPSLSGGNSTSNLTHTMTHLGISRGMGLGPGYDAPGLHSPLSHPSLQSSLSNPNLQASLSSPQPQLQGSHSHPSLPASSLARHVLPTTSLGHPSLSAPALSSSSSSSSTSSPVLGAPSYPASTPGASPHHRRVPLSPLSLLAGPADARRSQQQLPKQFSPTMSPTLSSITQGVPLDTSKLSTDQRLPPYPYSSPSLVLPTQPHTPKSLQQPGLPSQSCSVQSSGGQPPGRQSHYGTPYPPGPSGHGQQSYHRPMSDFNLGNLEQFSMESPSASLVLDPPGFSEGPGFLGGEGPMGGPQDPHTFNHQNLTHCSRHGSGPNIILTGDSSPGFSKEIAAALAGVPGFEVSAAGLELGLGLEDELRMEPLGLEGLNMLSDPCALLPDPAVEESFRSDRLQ

B1: Salt Inducible Kinase 2 (SIK2) (protein)
chain: MVMADGPRHLQRGPVRVGFYDIEGTLGKGNFAVVKLGRHRITKTEVAIKIIDKSQLDAVNLEKIYREVQIMKMLDHPHIIKLYQVMETKSMLYLVTEYAKNGEIFDYLANHGRLNESEARRKFWQILSAVDYCHGRKIVHRDLKAENLLLDNNMNIKIADFGFGNFFKSGELLATWCGSPPYAAPEVFEGQQYEGPQLDIWSMGVVLYVLVCGALPFDGPTLPILRQRVLEGRFRIPYFMSEDCEHLIRRMLVLDPSKRLTIAQIKEHKWMLIEVPVQRPVLYPQEQENEPSIGEFNEQVLRLMHSLGIDQQKTIESLQNKSYNHFAAIYFLLVERLKSHRSSFPVEQRLDGRQRRPSTIAEQTVAKAQTVGLPVTMHSPNMRLLRSALLPQASNVEAFSFPASGCQAEAAFMEEECVDTPKVNGCLLDPVPPVLVRKGCQSLPSNMMETSIDEGLETEGEAEEDPAHAFEAFQSTRSGQRRHTLSEVTNQLVVMPGAGKIFSMNDSPSLDSVDSEYDMGSVQRDLNFLEDNPSLKDIMLANQPSPRMTSPFISLRPTNPAMQALSSQKREVHNRSPVSFREGRRASDTSLTQGIVAFRQHLQNLARTKGILELNKVQLLYEQIGPEADPNLAPAAPQLQDLASSCPQEEVSQQQESVSTLPASVHPQLSPRQSLETQYLQHRLQKPSLLSKAQNTCQLYCKEPPRSLEQQLQEHRLQQKRLFLQKQSQLQAYFNQMQIAESSYPQPSQQLPLPRQETPPPSQQAPPFSLTQPLSPVLEPSSEQMQYSPFLSQYQEMQLQPLPSTSGPRAAPPLPTQLQQQQPPPPPPPPPPRQPGAAPAPLQFSYQTCELPSAASPAPDYPTPCQYPVDGAQQSDLTGPDCPRSPGLQEAPSSYDPLALSELPGLFDCEMLDAVDPQHNGYVLVN
in vitro kinase assay, 32P-labeling [1]: SIK2 was found to phosphorylate wild-type but not Ser171Ala mutant TORC2 in vitro
in vitro kinase assay, 32P-labeling [2]: SIK2 was found to phosphorylate wild-type but not Ser171Ala mutant TORC2 in vitro
